System: PAPSS2
Assay: Substrate kinetic studies of recombinant PAPSS2 with ATP and Na2SO4
Format: biochemical, human
Method: To estimate apparent Km values of PAPSS2 for the two reaction cosubstrates, a series of ATP (0.125–4 mM) and Na2SO4 (0.125–16 mM) concentrations were tested with the recombinant allozymes. When ATP was the varied substrate, the concentration of Na2SO4 was 4 mM, and when Na2SO4 was the varied substrate, the concentration of ATP was 1 mM. Blanks for each substrate concentration were included by assaying COS-1 cell cytosol after transfection with empty vector.
Data Analysis: Apparent Km values were calculated by using the method of Wilkinson with a computer program written by Cleland. Wilkinson, Biochem. J., 80:324–332 (1961); and Cleland, Nature, 198:[…] (1963). Statistical comparisons of data were performed by ANOVA with the StatView program, version 4.5 (Abacus Concepts, Inc., Berkeley, Calif.). Apparent Km, S50 and Vmax values for the wild-type and variant PAPSS2 allozymes were compared by the use of unpaired Student's t-test.
Alterations in amino acid sequence can alter enzyme substrate affinity and/or catalytic efficiency. Decreased activity of the Val291Met allozyme—without a significant alteration in level of enzyme protein—could have resulted from a change in substrate kinetics. Therefore, a series of ATP (0.125–4 mM) and Na2SO4 (0.125–16 mM) concentrations were used to estimate apparent Km values for recombinant wild type PAPSS2 and for the Val291Met variant allozyme. […] ATP concentrations at which 50% maximal velocity was achieved (S50 values) were 0.70 and 0.95 mM for the wild type and variant allozymes, respectively (Table 4). In both cases, the Hill coefficient was greater than 2, […]. In contrast, substrate kinetics of both allozymes for Na2SO4 conformed to Michaelis-Menten predictions (FIG. 5B). […] In summary, decreased activity for the Val1291Met variant appeared to result from an alteration in substrate kinetics, while decreased activity for the Glu10Lys allozyme, in contrast, resulted primarily from a decrease in the quantity of enzyme protein. Because the Val291Met variant was encoded by a construct that contained the most common PAPSS2 nonsynonymous cSNP, these observations could have functional implications for the sulfate conjugation of both endogenous and/or exogenous compounds.

[1] = ATP varied 0.125-4 mM, Na2SO4 4 mM, listed as Wild Type

B1: wild type: reference human PAPSS2 polypeptide (SEQ ID NO:9, GenBank AF091242), recombinantly expressed in COS-1 cells (protein, listed as Homo sapiens)
chain: MSGIKKQKTENQQKSTNVVYQAHHVSRNKRGQVVGTRGGFRGCTVWLTGLSGAGKTTISFALEEYLVSHAIPCYSLDGDNVRHGLNRNLGFSPGDREENIRRIAEVAKLFADAGLVCITSFISPFAKDRENARKIHESAGLPFFEIFVDAPLNICESRDVKGLYKRARAGEIKGFTGIDSDYEKPETPERVLKTNLSTVSDCVHQVVELLQEQNIVPYTIIKDIHELFVPENKLDHVRAEAETLPSLSITKLDLQWVQVLSEGWATPLKGFMREKEYLQVMHFDTLLDDGVINMSIPIVLPVSAEDKTRLEGCSKFVLAHGGRRVAILRDAEFYEHRKEERCSRVWGTTCTKHPHIKMVMESGDWLVGGDLQVLEKIRWNDGLDQYRLTPLELKQKCKEMNADAVFAFQLRNPVHNGHALLMQDTCRRLLERGYKHPVLLLHPLGGWTKDDDVPLDWRMKQHAAVLEEGVLDPKSTIVAIFPSPMLYAGPTEVQWHCRSRMIAGANFYIVGRDPAGMPHPETKKDLYEPTHGGKVLSMAPGLTSVEIIPFRVAAYNKAKKAMDFYDPARHNEFDFISGTRMRKLAREGENPPDGFMAPKAWKVLTDYYRSLEKN
- S50 for ATP (ATP concentration at which 50% maximal velocity was achieved) (ATP varied 0.125-4 mM, Na2SO4 4 mM): 0.70 mM
- Hill coefficient, ATP [1]: 5.4 ± 0.1
- S50 for ATP (ATP concentration at which 50% maximal velocity was achieved) [1]: 0.70 ± 0.01 mM
- Km (apparent Km, Na2SO4 varied 0.125-16 mM, ATP 1 mM): 870 µM
- Vmax/S50, ATP (ratio, wild type = 100, ATP as varied substrate): 100
- Vmax, ATP (relative Vmax, wild type = 100, ATP as varied substrate): 100
- Vmax, Na2SO4 (relative Vmax, wild type = 100, Na2SO4 as varied substrate): 100

Source: patent publication US7186551B1, “3′-phosphoadenosine -5′-phosphosulfate synthetase 2 (PAPSS2) sequence variants” (Mayo Foundation for Medical Education and Research, priority 2001, dated 2007)
